Drawing on publication PMC11203719, “Mts1 (S100A4) and Its Peptide Demonstrate Cytotoxic Activity in Complex with Tag7 (PGLYRP1) Peptide” (International Journal of Molecular Sciences, 2024), this text covers Kd for one molecule.

For the experiment, the target named is T1, Tag7 (PGLYRP1) protein, recombinant (UniProt O88593).
T1 sequence (O88593 1-182, species assumed, looked up): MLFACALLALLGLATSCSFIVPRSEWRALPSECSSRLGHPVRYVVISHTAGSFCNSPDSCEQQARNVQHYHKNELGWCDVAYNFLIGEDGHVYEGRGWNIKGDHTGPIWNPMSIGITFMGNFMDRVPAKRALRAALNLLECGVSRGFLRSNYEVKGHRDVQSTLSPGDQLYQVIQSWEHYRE
Put plainly: MST; Tag7 labelled with Alexa Fluor 488 (200 nM), preincubated 20 min in the dark at room temperature with 16 concentrations of M7; Monolith NT.115, 10% IR laser power.

For orientation: Kd means the equilibrium constant for the complex coming apart. Turning to ELPSFLGKRTDEAAFQK [M7 peptide of Mts1 (S100A4)], the Kd came out at 2.96 nM.
